Experimental findings from patent publication US20110306096A1 (PACIFIC BIOSCIENCES OF CALIFORNIA, published 2011) are described below.

The labels stand for the following.
B1: SEQ ID NO 11 (other, phi29)
chain: LNDIFNAQKIEWHHHHHHHHHHHMKHMPRKMYSCDFETTTKVEDCRVWAYGYMNIEDHSEYKIGNSLDEFMAWVLKVQADLYFHNLKFDGAFIINWLERNGFKWSADGLPNTYNTIISRMGQWYMIDICLGYKGKRKIHTVIYDSLKKLPFPVKKIAKDFKLTVLKGDIDYHKERPVGYKITPEEYAYIKNDIQIIAEALLIQFKQGLDRMTAGSDSLKGFKDIITTKKFKKVFPTLSLGLDKEVRYAYRGGFTWLNDRFKEKEIGEGMVFDVNSLYPAQMYSRLLPYGEPIVFEGKYVWDEDYPLHIQHIRCEFELKEGYIPTIQIKRSRFYKGNEYLKSSGGEIADLWLSNVDLELMKEHYDLYNVEYISGLKFKATTGLFKDFIDKWTYIKTTSEGAIKQLAKLMLNSLYGKFASNPDVTGKVPYLKENGALGFRLGEEETKDPVYTPMGVFITAWARYTTITAAQACYDRIIYCDTDSIHLTGTEIPDVIKDIVDPKKLGYWAHESTFKRAKYLRQKTYIQDIYMKEVDGKLVEGSPDDYTDIKFSVKCAGMTDKIKKEVTFENFKVGFSRKMKPKPVQVPGGVVLVDDTFTIK
modifications: biotin on the lysine of the biotinylation peptide (in-vivo biotinylation by biotin ligase)
notes: N-terminus-biotinylation peptide-His(10)-phi29 pol-C-terminus; expressed in E. coli co-expressing biotin ligase, Ni-NTA purified
B2: SEQ ID NO 3 (other, phi29)
chain: LNDFFNAQKIEWHHHHHHHHHHHMKHMPRKMYSCDFETTTKVEDCRVWAYGYMNIEDHSEYKIGNSLDEFMAWVLKVQADLYFHNLKFDGAFIINWLERNGFKWSADGLPNTYNTIISRMGQWYMIDICLGYKGKRKIHTVIYDSLKKLPFPVKKIAKDFKLTVLKGDIDYHKERPVGYKITPEEYAYIKNDIQIIAEALLIQFKQGLDRMTAGSDSLKGFKDIITTKKFKKVFPTLSLGLDKEVRYAYRGGFTWLNDRFKEKEIGEGMVFDVNSLYPAQMYSRLLPYGEPIVFEGKYVWDEDYPLHIQHIRCEFELKEGYIPTIQIKRSRFYKGNEYLKSSGGEIADLWLSNVDLELMKEHYDLYNVEYISGLKFKATTGLFKDFIDKWTYIKTTSEGAIKQLAKLMLNSLYGKFASNPDVTGKVPYLKENGALGFRLGEEETKDPVYTPMGVFITAWARYTTITAAQACYDRIIYCDTDSIHLTGTEIPDVIKDIVDPKKLGYWAHESTFKRAKYLRQKTYIQDIYMKEVDGKLVEGSPDDYTDIKFSVKCAGMTDKIKKEVTFENFKVGFSRKMKPKPVQVPGGVVLVDDTFTIK
modifications: biotin on the lysine of the biotinylation peptide (in-vivo biotinylation by biotin ligase)
notes: as for B1
B3: SEQ ID NO 10 (other, phi29)
chain: LNDIFHAQKIEWHHHHHHHHHHHMKHMPRKMYSCDFETTTKVEDCRVWAYGYMNIEDHSEYKIGNSLDEFMAWVLKVQADLYFHNLKFDGAFIINWLERNGFKWSADGLPNTYNTIISRMGQWYMIDICLGYKGKRKIHTVIYDSLKKLPFPVKKIAKDFKLTVLKGDIDYHKERPVGYKITPEEYAYIKNDIQIIAEALLIQFKQGLDRMTAGSDSLKGFKDIITTKKFKKVFPTLSLGLDKEVRYAYRGGFTWLNDRFKEKEIGEGMVFDVNSLYPAQMYSRLLPYGEPIVFEGKYVWDEDYPLHIQHIRCEFELKEGYIPTIQIKRSRFYKGNEYLKSSGGEIADLWLSNVDLELMKEHYDLYNVEYISGLKFKATTGLFKDFIDKWTYIKTTSEGAIKQLAKLMLNSLYGKFASNPDVTGKVPYLKENGALGFRLGEEETKDPVYTPMGVFITAWARYTTITAAQACYDRIIYCDTDSIHLTGTEIPDVIKDIVDPKKLGYWAHESTFKRAKYLRQKTYIQDIYMKEVDGKLVEGSPDDYTDIKFSVKCAGMTDKIKKEVTFENFKVGFSRKMKPKPVQVPGGVVLVDDTFTIK
modifications: biotin on the lysine of the biotinylation peptide (in-vivo biotinylation by biotin ligase)
notes: as for B1
B4: SEQ ID NO 8 (other, phi29)
chain: LNDFFEAQKIEWHHHHHHHHHHHMKHMPRKMYSCDFETTTKVEDCRVWAYGYMNIEDHSEYKIGNSLDEFMAWVLKVQADLYFHNLKFDGAFIINWLERNGFKWSADGLPNTYNTIISRMGQWYMIDICLGYKGKRKIHTVIYDSLKKLPFPVKKIAKDFKLTVLKGDIDYHKERPVGYKITPEEYAYIKNDIQIIAEALLIQFKQGLDRMTAGSDSLKGFKDIITTKKFKKVFPTLSLGLDKEVRYAYRGGFTWLNDRFKEKEIGEGMVFDVNSLYPAQMYSRLLPYGEPIVFEGKYVWDEDYPLHIQHIRCEFELKEGYIPTIQIKRSRFYKGNEYLKSSGGEIADLWLSNVDLELMKEHYDLYNVEYISGLKFKATTGLFKDFIDKWTYIKTTSEGAIKQLAKLMLNSLYGKFASNPDVTGKVPYLKENGALGFRLGEEETKDPVYTPMGVFITAWARYTTITAAQACYDRIIYCDTDSIHLTGTEIPDVIKDIVDPKKLGYWAHESTFKRAKYLRQKTYIQDIYMKEVDGKLVEGSPDDYTDIKFSVKCAGMTDKIKKEVTFENFKVGFSRKMKPKPVQVPGGVVLVDDTFTIK
modifications: biotin on the lysine of the biotinylation peptide (in-vivo biotinylation by biotin ligase)
notes: as for B1
B5: SEQ ID NO 6 (other, phi29)
chain: LNLIFEAQKIEWHHHHHHHHHHHMKHMPRKMYSCDFETTTKVEDCRVWAYGYMNIEDHSEYKIGNSLDEFMAWVLKVQADLYFHNLKFDGAFIINWLERNGFKWSADGLPNTYNTIISRMGQWYMIDICLGYKGKRKIHTVIYDSLKKLPFPVKKIAKDFKLTVLKGDIDYHKERPVGYKITPEEYAYIKNDIQIIAEALLIQFKQGLDRMTAGSDSLKGFKDIITTKKFKKVFPTLSLGLDKEVRYAYRGGFTWLNDRFKEKEIGEGMVFDVNSLYPAQMYSRLLPYGEPIVFEGKYVWDEDYPLHIQHIRCEFELKEGYIPTIQIKRSRFYKGNEYLKSSGGEIADLWLSNVDLELMKEHYDLYNVEYISGLKFKATTGLFKDFIDKWTYIKTTSEGAIKQLAKLMLNSLYGKFASNPDVTGKVPYLKENGALGFRLGEEETKDPVYTPMGVFITAWARYTTITAAQACYDRIIYCDTDSIHLTGTEIPDVIKDIVDPKKLGYWAHESTFKRAKYLRQKTYIQDIYMKEVDGKLVEGSPDDYTDIKFSVKCAGMTDKIKKEVTFENFKVGFSRKMKPKPVQVPGGVVLVDDTFTIK
modifications: biotin on the lysine of the biotinylation peptide (in-vivo biotinylation by biotin ligase)
notes: as for B1
B6: SEQ ID NO 12 (other, phi29)
chain: LNDIFSAQKIEWHHHHHHHHHHHMKHMPRKMYSCDFETTTKVEDCRVWAYGYMNIEDHSEYKIGNSLDEFMAWVLKVQADLYFHNLKFDGAFIINWLERNGFKWSADGLPNTYNTIISRMGQWYMIDICLGYKGKRKIHTVIYDSLKKLPFPVKKIAKDFKLTVLKGDIDYHKERPVGYKITPEEYAYIKNDIQIIAEALLIQFKQGLDRMTAGSDSLKGFKDIITTKKFKKVFPTLSLGLDKEVRYAYRGGFTWLNDRFKEKEIGEGMVFDVNSLYPAQMYSRLLPYGEPIVFEGKYVWDEDYPLHIQHIRCEFELKEGYIPTIQIKRSRFYKGNEYLKSSGGEIADLWLSNVDLELMKEHYDLYNVEYISGLKFKATTGLFKDFIDKWTYIKTTSEGAIKQLAKLMLNSLYGKFASNPDVTGKVPYLKENGALGFRLGEEETKDPVYTPMGVFITAWARYTTITAAQACYDRIIYCDTDSIHLTGTEIPDVIKDIVDPKKLGYWAHESTFKRAKYLRQKTYIQDIYMKEVDGKLVEGSPDDYTDIKFSVKCAGMTDKIKKEVTFENFKVGFSRKMKPKPVQVPGGVVLVDDTFTIK
modifications: biotin on the lysine of the biotinylation peptide (in-vivo biotinylation by biotin ligase)
notes: as for B1
B7: SEQ ID NO 4 (other, phi29)
chain: INDLFSAQKIEWHHHHHHHHHHHMKHMPRKMYSCDFETTTKVEDCRVWAYGYMNIEDHSEYKIGNSLDEFMAWVLKVQADLYFHNLKFDGAFIINWLERNGFKWSADGLPNTYNTIISRMGQWYMIDICLGYKGKRKIHTVIYDSLKKLPFPVKKIAKDFKLTVLKGDIDYHKERPVGYKITPEEYAYIKNDIQIIAEALLIQFKQGLDRMTAGSDSLKGFKDIITTKKFKKVFPTLSLGLDKEVRYAYRGGFTWLNDRFKEKEIGEGMVFDVNSLYPAQMYSRLLPYGEPIVFEGKYVWDEDYPLHIQHIRCEFELKEGYIPTIQIKRSRFYKGNEYLKSSGGEIADLWLSNVDLELMKEHYDLYNVEYISGLKFKATTGLFKDFIDKWTYIKTTSEGAIKQLAKLMLNSLYGKFASNPDVTGKVPYLKENGALGFRLGEEETKDPVYTPMGVFITAWARYTTITAAQACYDRIIYCDTDSIHLTGTEIPDVIKDIVDPKKLGYWAHESTFKRAKYLRQKTYIQDIYMKEVDGKLVEGSPDDYTDIKFSVKCAGMTDKIKKEVTFENFKVGFSRKMKPKPVQVPGGVVLVDDTFTIK
modifications: biotin on the lysine of the biotinylation peptide (in-vivo biotinylation by biotin ligase)
notes: as for B1
B8: SEQ ID NO 5 (other, phi29)
chain: INDIFEAQKIEWHHHHHHHHHHHMKHMPRKMYSCDFETTTKVEDCRVWAYGYMNIEDHSEYKIGNSLDEFMAWVLKVQADLYFHNLKFDGAFIINWLERNGFKWSADGLPNTYNTIISRMGQWYMIDICLGYKGKRKIHTVIYDSLKKLPFPVKKIAKDFKLTVLKGDIDYHKERPVGYKITPEEYAYIKNDIQIIAEALLIQFKQGLDRMTAGSDSLKGFKDIITTKKFKKVFPTLSLGLDKEVRYAYRGGFTWLNDRFKEKEIGEGMVFDVNSLYPAQMYSRLLPYGEPIVFEGKYVWDEDYPLHIQHIRCEFELKEGYIPTIQIKRSRFYKGNEYLKSSGGEIADLWLSNVDLELMKEHYDLYNVEYISGLKFKATTGLFKDFIDKWTYIKTTSEGAIKQLAKLMLNSLYGKFASNPDVTGKVPYLKENGALGFRLGEEETKDPVYTPMGVFITAWARYTTITAAQACYDRIIYCDTDSIHLTGTEIPDVIKDIVDPKKLGYWAHESTFKRAKYLRQKTYIQDIYMKEVDGKLVEGSPDDYTDIKFSVKCAGMTDKIKKEVTFENFKVGFSRKMKPKPVQVPGGVVLVDDTFTIK
modifications: biotin on the lysine of the biotinylation peptide (in-vivo biotinylation by biotin ligase)
notes: as for B1
B9: SEQ ID NO 7 (other, phi29)
chain: LNDLFEAQKIEWHHHHHHHHHHHMKHMPRKMYSCDFETTTKVEDCRVWAYGYMNIEDHSEYKIGNSLDEFMAWVLKVQADLYFHNLKFDGAFIINWLERNGFKWSADGLPNTYNTIISRMGQWYMIDICLGYKGKRKIHTVIYDSLKKLPFPVKKIAKDFKLTVLKGDIDYHKERPVGYKITPEEYAYIKNDIQIIAEALLIQFKQGLDRMTAGSDSLKGFKDIITTKKFKKVFPTLSLGLDKEVRYAYRGGFTWLNDRFKEKEIGEGMVFDVNSLYPAQMYSRLLPYGEPIVFEGKYVWDEDYPLHIQHIRCEFELKEGYIPTIQIKRSRFYKGNEYLKSSGGEIADLWLSNVDLELMKEHYDLYNVEYISGLKFKATTGLFKDFIDKWTYIKTTSEGAIKQLAKLMLNSLYGKFASNPDVTGKVPYLKENGALGFRLGEEETKDPVYTPMGVFITAWARYTTITAAQACYDRIIYCDTDSIHLTGTEIPDVIKDIVDPKKLGYWAHESTFKRAKYLRQKTYIQDIYMKEVDGKLVEGSPDDYTDIKFSVKCAGMTDKIKKEVTFENFKVGFSRKMKPKPVQVPGGVVLVDDTFTIK
modifications: biotin on the lysine of the biotinylation peptide (in-vivo biotinylation by biotin ligase)
notes: as for B1

This test deals with T1, streptavidin (UniProt P22629 37-163, limits assumed).
T1 construct: Used at a 2-fold molar excess over the fusion protein
T1 sequence (P22629 37-163 limits assumed): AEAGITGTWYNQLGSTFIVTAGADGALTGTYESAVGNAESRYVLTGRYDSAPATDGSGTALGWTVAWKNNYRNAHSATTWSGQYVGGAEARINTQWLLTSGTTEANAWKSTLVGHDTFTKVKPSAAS
As to the kind of experiment: HPLC after mixing the purified fusion protein with a 2-fold molar excess of streptavidin. How it is done: Each of the DNA sequences encoding the affinity peptides was added individually to the 5′ terminus of a His(10)-tagged phi29 DNA polymerase gene such that the polypeptide expressed from each construct was a fusion protein consisting of: N-terminus-biotinylation peptide-His(10)-phi29 pol-C-terminus. Each gene was expressed in E. coli cells co-expressing biotin ligase in culture medium containing biotin. These conditions are known to effect the in-vivo biotinylation of biotinylation peptides. Proteins were purified using Ni-NTA columns and then mixed with a 2-fold molar excess of streptavidin under conditions known to effect binding of streptavidin to biotinylated fusion proteins.
The degree of biotinylation of each protein was assessed by HPLC. […] None of the biotinylation peptides affected the polymerase activity when tested in a branching fraction assay performed, for example, as described in U.S. patent application No. 2010/0112645.
On to B1, for which the “percent bound to streptavidin” value was around 100%.

Take B2: the “percent bound to streptavidin” value is around 100%.

For the molecule B3, the “percent bound to streptavidin” value was around 100%.

As for B4, the “percent bound to streptavidin” value is around 100%.

Take B5: the “percent bound to streptavidin” value is around 100%.

Consider B6, for which the “percent bound to streptavidin” value was around 100%.

In the case of B7, the “percent bound to streptavidin” value is around 100%.

Turning to B8, the “percent bound to streptavidin” value was around 100%.

Take B9: the “percent bound to streptavidin” value was around 100%.
